Target: DTX3L RD (RING-DTC) (Homo sapiens, UniProt Q8TDB6 544-740)
Assay: EMSA; 5 mM Mg2+; protein 0.5, 1, 2 uM; RNA 0.5 uM; EMSA: 20 mM HEPES pH 7.5, 50 mM KCl, 5 mM MgCl2, 1 mM DTT, on ice 0.5 h, 6% native PAGE
Conditions: protein: recombinant; label: 3' Cy3; single strand

Chain of DTX3L RD (RING-DTC) (Q8TDB6 544-740): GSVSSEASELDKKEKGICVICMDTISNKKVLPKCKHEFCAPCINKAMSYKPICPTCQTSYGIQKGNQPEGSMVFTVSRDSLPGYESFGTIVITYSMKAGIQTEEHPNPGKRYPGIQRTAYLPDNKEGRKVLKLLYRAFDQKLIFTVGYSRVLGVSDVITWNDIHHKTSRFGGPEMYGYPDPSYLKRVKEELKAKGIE

## GUGGCGCGGAGACUUAGAGAAAUUGUGAUCAGGAA (ssRNA, 5' phosphate) [E35_5'P_RNA_3Cy3]
  binding result: no binding

Source: PMC10810221, “DELTEX E3 ligases ubiquitylate ADP-ribosyl modification on nucleic acids”
